From US20210139548A1 (published 2021)
*1 amine or outer side, *2 acyl side, *3 side chain or, on linkers, in order; H or OH if unused. Side-chain parts run from the residue outwards. The star is where a group is joined. C18 diacid = O=C(O)CCCCCCCCCCCCCCCCC(=O)*; γGlu = O=C(O)[C@H](CCC(=O)[*:2])N[*:1]; Isovaleryl = CC(C)CC(=O)*; AEEA = NCCOCCOCC(=O)O

B1: Compound 20 (peptide)
peptide: Isovaleryl-APEK([AEEA-AEEA-γGlu-C18 diacid])PEEDAAPEELQRYYVELRHYYNWLTRQRY-NH2
SMILES: CC(C)CC(=O)N[C@@H](C)C(=O)N1CCC[C@H]1C(=O)N[C@@H](CCC(=O)O)C(=O)N[C@@H](CCCCNC(=O)COCCOCCNC(=O)COCCOCCNC(=O)CC[C@H](NC(=O)CCCCCCCCCCCCCCCCC(=O)O)C(=O)O)C(=O)N1CCC[C@H]1C(=O)N[C@@H](CCC(=O)O)C(=O)N[C@@H](CCC(=O)O)C(=O)N[C@@H](CC(=O)O)C(=O)N[C@@H](C)C(=O)N[C@@H](C)C(=O)N1CCC[C@H]1C(=O)N[C@@H](CCC(=O)O)C(=O)N[C@@H](CCC(=O)O)C(=O)N[C@@H](CC(C)C)C(=O)N[C@@H](CCC(N)=O)C(=O)N[C@@H](CCCNC(=N)N)C(=O)N[C@@H](Cc1ccc(O)cc1)C(=O)N[C@@H](Cc1ccc(O)cc1)C(=O)N[C@H](C(=O)N[C@@H](CCC(=O)O)C(=O)N[C@@H](CC(C)C)C(=O)N[C@@H](CCCNC(=N)N)C(=O)N[C@@H](Cc1c[nH]cn1)C(=O)N[C@@H](Cc1ccc(O)cc1)C(=O)N[C@@H](Cc1ccc(O)cc1)C(=O)N[C@@H](CC(N)=O)C(=O)N[C@@H](Cc1c[nH]c2ccccc12)C(=O)N[C@@H](CC(C)C)C(=O)N[C@H](C(=O)N[C@@H](CCCNC(=N)N)C(=O)N[C@@H](CCC(N)=O)C(=O)N[C@@H](CCCNC(=N)N)C(=O)N[C@@H](Cc1ccc(O)cc1)C(N)=O)[C@@H](C)O)C(C)C
B2: Compound 21 (peptide)
peptide: Isovaleryl-APEK([AEEA-AEEA-γGlu-C18 diacid])PEEDASPEELQKYYVSLRHYYNWLTRQRY-NH2
SMILES: CC(C)CC(=O)N[C@@H](C)C(=O)N1CCC[C@H]1C(=O)N[C@@H](CCC(=O)O)C(=O)N[C@@H](CCCCNC(=O)COCCOCCNC(=O)COCCOCCNC(=O)CC[C@H](NC(=O)CCCCCCCCCCCCCCCCC(=O)O)C(=O)O)C(=O)N1CCC[C@H]1C(=O)N[C@@H](CCC(=O)O)C(=O)N[C@@H](CCC(=O)O)C(=O)N[C@@H](CC(=O)O)C(=O)N[C@@H](C)C(=O)N[C@@H](CO)C(=O)N1CCC[C@H]1C(=O)N[C@@H](CCC(=O)O)C(=O)N[C@@H](CCC(=O)O)C(=O)N[C@@H](CC(C)C)C(=O)N[C@@H](CCC(N)=O)C(=O)N[C@@H](CCCCN)C(=O)N[C@@H](Cc1ccc(O)cc1)C(=O)N[C@@H](Cc1ccc(O)cc1)C(=O)N[C@H](C(=O)N[C@@H](CO)C(=O)N[C@@H](CC(C)C)C(=O)N[C@@H](CCCNC(=N)N)C(=O)N[C@@H](Cc1c[nH]cn1)C(=O)N[C@@H](Cc1ccc(O)cc1)C(=O)N[C@@H](Cc1ccc(O)cc1)C(=O)N[C@@H](CC(N)=O)C(=O)N[C@@H](Cc1c[nH]c2ccccc12)C(=O)N[C@@H](CC(C)C)C(=O)N[C@H](C(=O)N[C@@H](CCCNC(=N)N)C(=O)N[C@@H](CCC(N)=O)C(=O)N[C@@H](CCCNC(=N)N)C(=O)N[C@@H](Cc1ccc(O)cc1)C(N)=O)[C@@H](C)O)C(C)C
B3: Compound 24 (peptide)
peptide: Isovaleryl-APEK([AEEA-AEEA-γGlu-C18 diacid])PEEDASPEELQRYYVSLRKYYNWLTRQRY-NH2
SMILES: CC(C)CC(=O)N[C@@H](C)C(=O)N1CCC[C@H]1C(=O)N[C@@H](CCC(=O)O)C(=O)N[C@@H](CCCCNC(=O)COCCOCCNC(=O)COCCOCCNC(=O)CC[C@H](NC(=O)CCCCCCCCCCCCCCCCC(=O)O)C(=O)O)C(=O)N1CCC[C@H]1C(=O)N[C@@H](CCC(=O)O)C(=O)N[C@@H](CCC(=O)O)C(=O)N[C@@H](CC(=O)O)C(=O)N[C@@H](C)C(=O)N[C@@H](CO)C(=O)N1CCC[C@H]1C(=O)N[C@@H](CCC(=O)O)C(=O)N[C@@H](CCC(=O)O)C(=O)N[C@@H](CC(C)C)C(=O)N[C@@H](CCC(N)=O)C(=O)N[C@@H](CCCNC(=N)N)C(=O)N[C@@H](Cc1ccc(O)cc1)C(=O)N[C@@H](Cc1ccc(O)cc1)C(=O)N[C@H](C(=O)N[C@@H](CO)C(=O)N[C@@H](CC(C)C)C(=O)N[C@@H](CCCNC(=N)N)C(=O)N[C@@H](CCCCN)C(=O)N[C@@H](Cc1ccc(O)cc1)C(=O)N[C@@H](Cc1ccc(O)cc1)C(=O)N[C@@H](CC(N)=O)C(=O)N[C@@H](Cc1c[nH]c2ccccc12)C(=O)N[C@@H](CC(C)C)C(=O)N[C@H](C(=O)N[C@@H](CCCNC(=N)N)C(=O)N[C@@H](CCC(N)=O)C(=O)N[C@@H](CCCNC(=N)N)C(=O)N[C@@H](Cc1ccc(O)cc1)C(N)=O)[C@@H](C)O)C(C)C
B4: Compound 25 (peptide)
peptide: Isovaleryl-APEK([AEEA-AEEA-γGlu-C18 diacid])PEEEASAEELQRYYVSLRHYYNWLTRQRY-NH2
SMILES: CC(C)CC(=O)N[C@@H](C)C(=O)N1CCC[C@H]1C(=O)N[C@@H](CCC(=O)O)C(=O)N[C@@H](CCCCNC(=O)COCCOCCNC(=O)COCCOCCNC(=O)CC[C@H](NC(=O)CCCCCCCCCCCCCCCCC(=O)O)C(=O)O)C(=O)N1CCC[C@H]1C(=O)N[C@@H](CCC(=O)O)C(=O)N[C@@H](CCC(=O)O)C(=O)N[C@@H](CCC(=O)O)C(=O)N[C@@H](C)C(=O)N[C@@H](CO)C(=O)N[C@@H](C)C(=O)N[C@@H](CCC(=O)O)C(=O)N[C@@H](CCC(=O)O)C(=O)N[C@@H](CC(C)C)C(=O)N[C@@H](CCC(N)=O)C(=O)N[C@@H](CCCNC(=N)N)C(=O)N[C@@H](Cc1ccc(O)cc1)C(=O)N[C@@H](Cc1ccc(O)cc1)C(=O)N[C@H](C(=O)N[C@@H](CO)C(=O)N[C@@H](CC(C)C)C(=O)N[C@@H](CCCNC(=N)N)C(=O)N[C@@H](Cc1c[nH]cn1)C(=O)N[C@@H](Cc1ccc(O)cc1)C(=O)N[C@@H](Cc1ccc(O)cc1)C(=O)N[C@@H](CC(N)=O)C(=O)N[C@@H](Cc1c[nH]c2ccccc12)C(=O)N[C@@H](CC(C)C)C(=O)N[C@H](C(=O)N[C@@H](CCCNC(=N)N)C(=O)N[C@@H](CCC(N)=O)C(=O)N[C@@H](CCCNC(=N)N)C(=O)N[C@@H](Cc1ccc(O)cc1)C(N)=O)[C@@H](C)O)C(C)C
B5: Compound 26 (peptide)
peptide: Isovaleryl-APEK([AEEA-AEEA-γGlu-C18 diacid])PPEDATPEELQRYYVSLRHYYNWLTRQRY-NH2
SMILES: CC(C)CC(=O)N[C@@H](C)C(=O)N1CCC[C@H]1C(=O)N[C@@H](CCC(=O)O)C(=O)N[C@@H](CCCCNC(=O)COCCOCCNC(=O)COCCOCCNC(=O)CC[C@H](NC(=O)CCCCCCCCCCCCCCCCC(=O)O)C(=O)O)C(=O)N1CCC[C@H]1C(=O)N1CCC[C@H]1C(=O)N[C@@H](CCC(=O)O)C(=O)N[C@@H](CC(=O)O)C(=O)N[C@@H](C)C(=O)N[C@H](C(=O)N1CCC[C@H]1C(=O)N[C@@H](CCC(=O)O)C(=O)N[C@@H](CCC(=O)O)C(=O)N[C@@H](CC(C)C)C(=O)N[C@@H](CCC(N)=O)C(=O)N[C@@H](CCCNC(=N)N)C(=O)N[C@@H](Cc1ccc(O)cc1)C(=O)N[C@@H](Cc1ccc(O)cc1)C(=O)N[C@H](C(=O)N[C@@H](CO)C(=O)N[C@@H](CC(C)C)C(=O)N[C@@H](CCCNC(=N)N)C(=O)N[C@@H](Cc1c[nH]cn1)C(=O)N[C@@H](Cc1ccc(O)cc1)C(=O)N[C@@H](Cc1ccc(O)cc1)C(=O)N[C@@H](CC(N)=O)C(=O)N[C@@H](Cc1c[nH]c2ccccc12)C(=O)N[C@@H](CC(C)C)C(=O)N[C@H](C(=O)N[C@@H](CCCNC(=N)N)C(=O)N[C@@H](CCC(N)=O)C(=O)N[C@@H](CCCNC(=N)N)C(=O)N[C@@H](Cc1ccc(O)cc1)C(N)=O)[C@@H](C)O)C(C)C)[C@@H](C)O
B6: Compound 27 (peptide)
peptide: Isovaleryl-APEK([AEEA-AEEA-γGlu-C18 diacid])PPEDAEPEELQRYYVSLRHYYNWLTRQRY-NH2
SMILES: CC(C)CC(=O)N[C@@H](C)C(=O)N1CCC[C@H]1C(=O)N[C@@H](CCC(=O)O)C(=O)N[C@@H](CCCCNC(=O)COCCOCCNC(=O)COCCOCCNC(=O)CC[C@H](NC(=O)CCCCCCCCCCCCCCCCC(=O)O)C(=O)O)C(=O)N1CCC[C@H]1C(=O)N1CCC[C@H]1C(=O)N[C@@H](CCC(=O)O)C(=O)N[C@@H](CC(=O)O)C(=O)N[C@@H](C)C(=O)N[C@@H](CCC(=O)O)C(=O)N1CCC[C@H]1C(=O)N[C@@H](CCC(=O)O)C(=O)N[C@@H](CCC(=O)O)C(=O)N[C@@H](CC(C)C)C(=O)N[C@@H](CCC(N)=O)C(=O)N[C@@H](CCCNC(=N)N)C(=O)N[C@@H](Cc1ccc(O)cc1)C(=O)N[C@@H](Cc1ccc(O)cc1)C(=O)N[C@H](C(=O)N[C@@H](CO)C(=O)N[C@@H](CC(C)C)C(=O)N[C@@H](CCCNC(=N)N)C(=O)N[C@@H](Cc1c[nH]cn1)C(=O)N[C@@H](Cc1ccc(O)cc1)C(=O)N[C@@H](Cc1ccc(O)cc1)C(=O)N[C@@H](CC(N)=O)C(=O)N[C@@H](Cc1c[nH]c2ccccc12)C(=O)N[C@@H](CC(C)C)C(=O)N[C@H](C(=O)N[C@@H](CCCNC(=N)N)C(=O)N[C@@H](CCC(N)=O)C(=O)N[C@@H](CCCNC(=N)N)C(=O)N[C@@H](Cc1ccc(O)cc1)C(N)=O)[C@@H](C)O)C(C)C

biological target: T1, human neuropeptide Y2 receptor (human, UniProt P49146 1-381); assay: radioligand competition (125I-PYY(1-36)), hNPY2R membranes
T1 construct: whole, on cells; also called hNPY2 receptor; hNPY2-R
T1 sequence (looked up): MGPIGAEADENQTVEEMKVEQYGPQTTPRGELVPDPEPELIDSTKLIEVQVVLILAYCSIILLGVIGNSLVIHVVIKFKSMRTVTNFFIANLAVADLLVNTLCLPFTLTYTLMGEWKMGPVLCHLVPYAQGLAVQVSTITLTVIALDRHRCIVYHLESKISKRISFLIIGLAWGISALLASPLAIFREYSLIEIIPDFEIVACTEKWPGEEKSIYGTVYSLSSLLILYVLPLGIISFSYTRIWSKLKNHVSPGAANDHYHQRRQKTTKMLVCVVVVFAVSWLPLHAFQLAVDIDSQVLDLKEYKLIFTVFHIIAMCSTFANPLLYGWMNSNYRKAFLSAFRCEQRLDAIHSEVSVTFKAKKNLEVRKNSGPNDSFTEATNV
Summary of the method: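 Commercial human Y2 receptor membranes (0.5 μg protein/well) were incubated with peptide for 2 h at room temperature in 50 mM HEPES, 5 mM MgCl₂, 1 mM CaCl₂, pH 7.4, with 0.2% ovalbumin. Bound radioligand was separated on PEI-soaked GF/C filters and counted by scintillation, and IC₅₀ came from nonlinear sigmoidal regression.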

Binder | Ki
B1 | 2.57 nM
B2 | 1.52 nM
B3 | 2.22 nM
B4 | 4.36 nM
B5 | 0.77 nM
B6 | 0.96 nM
